# B1: CD81K04 HC GG-05-hVH_1_18 / LC JA_GG-09-hVK_4_1 (antibody, V domains shown)
# VH: QVQLVQSGAEVKKPGASVKVSCKASGYTFSSSWMNWVRQAPGQGLEWMGRIYSGDGDAIYAQKLQGRVTMTTDTSTSTAYMELRSLRSDDTAVYYCAREGKTGDLLLRSWGQGTLVTVSS
# VL: DIVMTQSPDSLAVSLGERATINCKSSKSVSTSIYSYMHWYQQKPGQPPKLLIKYASTRESGVPDRFSGSGSGTDFTLTISSLQAEDVAVYYCEHSREFPFTFGQGTKLEIK
# notes: human constant region
# B2: CD81K04 HC JA_GG-14-hVH_1_69 / LC GG-03-hVK_4_1 (antibody, V domains shown)
# VH: QVQLVQSGAEVKKPGSSVKVSCKASGYTFSSSWMNWVRQAPGQGLEWMGRIYSGDGDAIYNGKFKGKATITADESTSTAYMELSSLRSEDTAVYYCAREGKTGDLLLRSWGQGTLVTVSS
# VL: DIVMTQSPDSLAVSLGERATINCKSSKSVSTSIYSYLAWYQQKPGQPPKLLIYYASYRESGVPDRFSGSGSGTDFTLTISSLQAEDVAVYYCQHSREFPFTFGQGTKLEIK
# notes: human constant region
# B3: CD81K04 HC JA_GG-13-hVH_1_69 / LC JA_GG-10-hVK_4_1 (antibody, V domains shown)
# VH: QVQLVQSGAEVKKPGSSVKVSCKASGGTFSSSWMNWVRQAPGQGLEWMGRIYSGDGDAIYAQKFQGRVTITADESTSTAYMELSSLRSEDTAVYYCAREGKTGDLLLRSWGQGTLVTVSS
# VL: DIVMTQSPDSLAVSLGERATINCRASKSVSTSIYSYMHWYQQKPGQPPKLLIKYASYLESGVPDRFSGSGSGTDFTLTISSLQAEDVAVYYCEHSREFPFTFGQGTKLEIK
# notes: human constant region
# B4: CD81K04 HC JA_GG-14-hVH_1_3 / LC GG-04-hVK_4_1 (antibody, V domains shown)
# VH: QVQLVQSGAEVKKPGASVKVSCKASGYTFSSSWMNWVRQAPGQGLEWMGRIYSGDGDAIYNGKFKGRATITADTSASTAYMELSSLRSEDTAVYYCAREGKTGDLLLRSWGQGTLVTVSS
# VL: DIVMTQSPDSLAVSLGERATINCKSSKSVSTSIYSYLAWYQQKPGQPPKLLIYYASTRESGVPDRFSGSGSGTDFTLTISSLQAEDVAVYYCQHSREFPYTFGQGTKLEIK
# notes: human constant region
# B5: CD81K04 HC JA_GG-13-hVH_1_69 / LC GG-03-hVK_4_1 (antibody, V domains shown)
# VH: QVQLVQSGAEVKKPGSSVKVSCKASGGTFSSSWMNWVRQAPGQGLEWMGRIYSGDGDAIYAQKFQGRVTITADESTSTAYMELSSLRSEDTAVYYCAREGKTGDLLLRSWGQGTLVTVSS
# VL: DIVMTQSPDSLAVSLGERATINCKSSKSVSTSIYSYLAWYQQKPGQPPKLLIYYASYRESGVPDRFSGSGSGTDFTLTISSLQAEDVAVYYCQHSREFPFTFGQGTKLEIK
# notes: human constant region
# B6: CD81K04 HC JA_GG-14-hVH_1_3 / LC JA_GG-08-hVK_4_1 (antibody, V domains shown)
# VH: QVQLVQSGAEVKKPGASVKVSCKASGYTFSSSWMNWVRQAPGQGLEWMGRIYSGDGDAIYNGKFKGRATITADTSASTAYMELSSLRSEDTAVYYCAREGKTGDLLLRSWGQGTLVTVSS
# VL: DIVMTQSPDSLAVSLGERATINCKSSKSVSTSIYSYMHWYQQKPGQPPKLLIKYASYLESGVPDRFSGSGSGTDFTLTISSLQAEDVAVYYCEHSREFPFTFGQGTKLEIK
# notes: human constant region
# B7: CD81K04 HC JA_GG-14-hVH_1_3 / LC JA_GG-09-hVK_4_1 (antibody, V domains shown)
# VH: QVQLVQSGAEVKKPGASVKVSCKASGYTFSSSWMNWVRQAPGQGLEWMGRIYSGDGDAIYNGKFKGRATITADTSASTAYMELSSLRSEDTAVYYCAREGKTGDLLLRSWGQGTLVTVSS
# VL: DIVMTQSPDSLAVSLGERATINCKSSKSVSTSIYSYMHWYQQKPGQPPKLLIKYASTRESGVPDRFSGSGSGTDFTLTISSLQAEDVAVYYCEHSREFPFTFGQGTKLEIK
# notes: human constant region
# B8: CD81K04 HC JA_GG-14-hVH_1_3 / LC GG-02-hVK_4_1 (antibody, V domains shown)
# VH: QVQLVQSGAEVKKPGASVKVSCKASGYTFSSSWMNWVRQAPGQGLEWMGRIYSGDGDAIYNGKFKGRATITADTSASTAYMELSSLRSEDTAVYYCAREGKTGDLLLRSWGQGTLVTVSS
# VL: DIVMTQSPDSLAVSLGERATINCKSSKSVSTSIYSYMHWYQQKPGQPPKLLIYYASYRESGVPDRFSGSGSGTDFTLTISSLQAEDVAVYYCQHSREFPFTFGQGTKLEIK
# notes: human constant region
# B9: CD81K04 HC JA_GG-14-hVH_1_3 / LC GG-03-hVK_4_1 (antibody, V domains shown)
# VH: QVQLVQSGAEVKKPGASVKVSCKASGYTFSSSWMNWVRQAPGQGLEWMGRIYSGDGDAIYNGKFKGRATITADTSASTAYMELSSLRSEDTAVYYCAREGKTGDLLLRSWGQGTLVTVSS
# VL: DIVMTQSPDSLAVSLGERATINCKSSKSVSTSIYSYLAWYQQKPGQPPKLLIYYASYRESGVPDRFSGSGSGTDFTLTISSLQAEDVAVYYCQHSREFPFTFGQGTKLEIK
# notes: human constant region
# B10: CD81K04 HC JA_GG-14-hVH_1_3 / LC JA_GG-10-hVK_4_1 (antibody, V domains shown)
# VH: QVQLVQSGAEVKKPGASVKVSCKASGYTFSSSWMNWVRQAPGQGLEWMGRIYSGDGDAIYNGKFKGRATITADTSASTAYMELSSLRSEDTAVYYCAREGKTGDLLLRSWGQGTLVTVSS
# VL: DIVMTQSPDSLAVSLGERATINCRASKSVSTSIYSYMHWYQQKPGQPPKLLIKYASYLESGVPDRFSGSGSGTDFTLTISSLQAEDVAVYYCEHSREFPFTFGQGTKLEIK
# notes: human constant region
# B11: CD81K04 HC JA_GG-13-hVH_1_69 / LC GG-02-hVK_4_1 (antibody, V domains shown)
# VH: QVQLVQSGAEVKKPGSSVKVSCKASGGTFSSSWMNWVRQAPGQGLEWMGRIYSGDGDAIYAQKFQGRVTITADESTSTAYMELSSLRSEDTAVYYCAREGKTGDLLLRSWGQGTLVTVSS
# VL: DIVMTQSPDSLAVSLGERATINCKSSKSVSTSIYSYMHWYQQKPGQPPKLLIYYASYRESGVPDRFSGSGSGTDFTLTISSLQAEDVAVYYCQHSREFPFTFGQGTKLEIK
# notes: human constant region
# B12: CD81K04 HC JA_GG-13-hVH_1_69 / LC JA_GG-08-hVK_4_1 (antibody, V domains shown)
# VH: QVQLVQSGAEVKKPGSSVKVSCKASGGTFSSSWMNWVRQAPGQGLEWMGRIYSGDGDAIYAQKFQGRVTITADESTSTAYMELSSLRSEDTAVYYCAREGKTGDLLLRSWGQGTLVTVSS
# VL: DIVMTQSPDSLAVSLGERATINCKSSKSVSTSIYSYMHWYQQKPGQPPKLLIKYASYLESGVPDRFSGSGSGTDFTLTISSLQAEDVAVYYCEHSREFPFTFGQGTKLEIK
# notes: human constant region
# B13: CD81K04 HC JA_GG-14-hVH_1_69 / LC JA_GG-08-hVK_4_1 (antibody, V domains shown)
# VH: QVQLVQSGAEVKKPGSSVKVSCKASGYTFSSSWMNWVRQAPGQGLEWMGRIYSGDGDAIYNGKFKGKATITADESTSTAYMELSSLRSEDTAVYYCAREGKTGDLLLRSWGQGTLVTVSS
# VL: DIVMTQSPDSLAVSLGERATINCKSSKSVSTSIYSYMHWYQQKPGQPPKLLIKYASYLESGVPDRFSGSGSGTDFTLTISSLQAEDVAVYYCEHSREFPFTFGQGTKLEIK
# notes: human constant region
# B14: CD81K04 HC JA_GG-13-hVH_1_69 / LC JA_GG-09-hVK_4_1 (antibody, V domains shown)
# VH: QVQLVQSGAEVKKPGSSVKVSCKASGGTFSSSWMNWVRQAPGQGLEWMGRIYSGDGDAIYAQKFQGRVTITADESTSTAYMELSSLRSEDTAVYYCAREGKTGDLLLRSWGQGTLVTVSS
# VL: DIVMTQSPDSLAVSLGERATINCKSSKSVSTSIYSYMHWYQQKPGQPPKLLIKYASTRESGVPDRFSGSGSGTDFTLTISSLQAEDVAVYYCEHSREFPFTFGQGTKLEIK
# notes: human constant region
# B15: CD81K04 HC JA_GG-13-hVH_1_69 / LC GG-04-hVK_4_1 (antibody, V domains shown)
# VH: QVQLVQSGAEVKKPGSSVKVSCKASGGTFSSSWMNWVRQAPGQGLEWMGRIYSGDGDAIYAQKFQGRVTITADESTSTAYMELSSLRSEDTAVYYCAREGKTGDLLLRSWGQGTLVTVSS
# VL: DIVMTQSPDSLAVSLGERATINCKSSKSVSTSIYSYLAWYQQKPGQPPKLLIYYASTRESGVPDRFSGSGSGTDFTLTISSLQAEDVAVYYCQHSREFPYTFGQGTKLEIK
# notes: human constant region
# B16: CD81K04 HC JA_GG-14-hVH_1_69 / LC GG-02-hVK_4_1 (antibody, V domains shown)
# VH: QVQLVQSGAEVKKPGSSVKVSCKASGYTFSSSWMNWVRQAPGQGLEWMGRIYSGDGDAIYNGKFKGKATITADESTSTAYMELSSLRSEDTAVYYCAREGKTGDLLLRSWGQGTLVTVSS
# VL: DIVMTQSPDSLAVSLGERATINCKSSKSVSTSIYSYMHWYQQKPGQPPKLLIYYASYRESGVPDRFSGSGSGTDFTLTISSLQAEDVAVYYCQHSREFPFTFGQGTKLEIK
# notes: human constant region
# Target: T1, CD81 (UniProt P60033 1-236, limits assumed)
# T1 construct: whole, on cells; also called CD81 receptor
# T1 sequence (looked up): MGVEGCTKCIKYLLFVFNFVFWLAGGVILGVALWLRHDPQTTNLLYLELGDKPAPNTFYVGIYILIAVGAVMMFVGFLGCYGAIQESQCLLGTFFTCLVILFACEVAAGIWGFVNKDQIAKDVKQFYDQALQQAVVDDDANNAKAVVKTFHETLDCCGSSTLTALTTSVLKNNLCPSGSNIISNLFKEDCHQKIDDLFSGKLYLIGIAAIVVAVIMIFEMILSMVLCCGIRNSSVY
# Test: cell ELISA;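 note: antibody binding to HuH7 cells expressing CD81 versus a CD81-negative HuH7 control line, bound antibody detected by secondary reagent, absorbance at 450 nm with 620 nm reference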
row,Binder,ELISA data
1,B1,0.889
2,B2,0.26
3,B3,0.613
4,B4,0.177
5,B5,0.115
6,B6,0.953
7,B7,0.975
8,B8,0.575
9,B9,0.518
10,B10,0.882
11,B11,0.172
12,B12,0.743
13,B13,0.835
14,B14,0.776
15,B15,0.073
16,B16,0.235
